# Test results reported in patent CN110623921A (BEIJING DONGFANG BIOTECH CO LTD, dated 2019).
# T1: CD19 (细胞表面CD19, Raji细胞) (UniProt P15391 20-556, limits assumed)
# T1 sequence (looked up): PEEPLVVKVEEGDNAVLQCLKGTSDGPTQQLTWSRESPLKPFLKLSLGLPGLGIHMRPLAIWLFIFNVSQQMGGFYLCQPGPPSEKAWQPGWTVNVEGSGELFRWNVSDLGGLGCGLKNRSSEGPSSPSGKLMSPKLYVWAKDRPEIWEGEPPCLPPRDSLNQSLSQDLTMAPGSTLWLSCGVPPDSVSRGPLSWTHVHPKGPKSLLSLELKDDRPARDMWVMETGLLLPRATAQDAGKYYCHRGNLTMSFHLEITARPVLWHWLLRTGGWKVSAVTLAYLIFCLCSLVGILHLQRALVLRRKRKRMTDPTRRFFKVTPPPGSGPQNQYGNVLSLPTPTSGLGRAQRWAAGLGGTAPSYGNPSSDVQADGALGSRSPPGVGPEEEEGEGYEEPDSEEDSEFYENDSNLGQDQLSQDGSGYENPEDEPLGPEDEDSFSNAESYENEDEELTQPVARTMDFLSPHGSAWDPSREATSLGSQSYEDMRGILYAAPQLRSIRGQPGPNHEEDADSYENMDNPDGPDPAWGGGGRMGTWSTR
# Experiments:
# CD3 (细胞表面CD3, Jurkat细胞) = target: T2, CD3 (细胞表面CD3, Jurkat细胞); test: flow cytometry on Jurkat cells, Alexa488 anti-human IgG-Fc, MFI fitted in GraphPad Prism
# T2 construct: whole, on cells; also called CD3抗原; CD3阳性的Jurkat细胞
# CD19 (细胞表面CD19, Raji细胞) [1] = target: T1, CD19 (细胞表面CD19, Raji细胞); test: cell-based or functional assay
# CD19 (细胞表面CD19, Raji细胞) [2] = target: T1, CD19 (细胞表面CD19, Raji细胞); test: flow cytometry on Raji cells, Alexa488 anti-human IgG-Fc, MFI fitted in GraphPad Prism
# T2 sequence (P07766 23-207): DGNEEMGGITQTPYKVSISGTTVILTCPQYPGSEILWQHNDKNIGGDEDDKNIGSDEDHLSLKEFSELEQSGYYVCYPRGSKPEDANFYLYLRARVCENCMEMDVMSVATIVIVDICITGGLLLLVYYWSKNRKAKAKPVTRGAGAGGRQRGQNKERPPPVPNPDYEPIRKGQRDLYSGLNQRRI
Binder,"EC50 (CD3 (细胞表面CD3, Jurkat细胞)) [nM]","EC50 of PBMC-mediated killing of Raji cells (LDH release) (CD19 (细胞表面CD19, Raji细胞) [1]) [nM]","EC50 (CD19 (细胞表面CD19, Raji细胞) [2]) [nM]"
抗CD3和抗CD19双特异性抗体JY039 (bispecific antibody) chain 1: not shown chain 2: not shown chain 3: QVQLQQSGAELVRPGSSVKISCKASGYAFSSYWMNWVKQRPGQGLEWIGQIWPGDGDTNYNGKFKGKATLTADESSSTAYMQLSSLASEDSAVYFCARRETTTVGRYYYAMDYWGQGTTVTVSS chain 4: DIQLTQSPASLAVSLGQRATISCKASQSVDYDGDSYLNWYQQIPGQPPKLLIYDASNLVSGIPPRFSGSGSGTDFTLNIHPVEKVDAATYHCQQSTEDPWTFGGGTKLEIK,21.6,0.00126,1.02
"抗CD19的单克隆抗体 (JY039的抗CD19序列构建) (antibody, V domains shown, also called AntiCD19McAb; 抗CD19单克隆抗体) VH: QVQLQQSGAELVRPGSSVKISCKASGYAFSSYWMNWVKQRPGQGLEWIGQIWPGDGDTNYNGKFKGKATLTADESSSTAYMQLSSLASEDSAVYFCARRETTTVGRYYYAMDYWGQGTTVTVSS VL: DIQLTQSPASLAVSLGQRATISCKASQSVDYDGDSYLNWYQQIPGQPPKLLIYDASNLVSGIPPRFSGSGSGTDFTLNIHPVEKVDAATYHCQQSTEDPWTFGGGTKLEIK",–,0.222,0.191
